Source: patent US20090075374A1, “METHODS OF GENERATING EPITHELIAL LINEAGE CELLS FROM EMBRYOID BODIES AND PLURIPOTENT CELLS” (priority 2007, published 2009)

B1: Noggin: a BMP inhibitor (R&D Systems) (protein, UniProt Q13253 28-232, looked up)
Noggin: QHYLHIRPAPSDNLPLVDLIEHPDPIFDPKEKDLNETLLRSLLGGHYDPGFMATSPPEDRPGGGGGAAGGAEDLAELDQLLRQRPSGAMPSEIKGLEFSEGLAQGKKQRLSKKLRRKLQMWLWSQTFCPVLYAWNDLGSRFWPRYVKVGSCFSKRSCSVPEGMVCKPSKSVHLTVLRWRCQRRGGQRCGWIPIQYPIISECKCSC
B2: BMP-4: bone morphogenetic protein-4 (R&D Systems), growth factor of the TGF-β superfamily (protein, UniProt P12644 293-408, looked up)
Bone morphogenetic protein 4: SPKHHSQRARKKNKNCRRHSLYVDFSDVGWNDWIVAPPGYQAFYCHGDCPFPLADHLNSTNHAIVQTLVNSVNSSIPKACCVPTELSAISMLYLDEYDKVVLKNYQEMVVEGCGCR

Experiments:
Type in all cases: cell-based, human
undifferentiated hESCs = test: Concentration-dependent effect of RA: toxicity; settings: higher concentrations (e.g., 10 μM)
Protocol: In some experiments, K14-positive cells were generated from EBs.
To study the concentration-dependent effect of RA, EBs were differentiated with varying RA concentrations for nine days and subsequently cultured on gelatin in DSFM for nineteen days. […] To study the temporal-dependent effect of RA, RA was added to the cultures at various stages of differentiation (e.g., either during EB induction or during adherent culture in DSFM). […] When exposed to RA, plated cells from control EBs were enriched in neural precursor populations, as confirmed by qPCR analysis.

hESCs [1] = test: Direct differentiation of hESCs to K14-positive cells; settings: for K14+ yield: subsequent culture in keratinocyte medium, RA+/− cultures
Protocol: For immunohistochemistry, cells were fixed in 4% paraformaldehyde for 15 minutes at room temperature before blocking and permeabilizing with 5% milk in PBS with 0.4% Triton X-100.

hESCs [2] = test: Direct differentiation of hESCs in N2 medium containing RA, BMP-4 or Noggin: epithelial and neuroectodermal transcripts; settings: six days, BMP-4 inhibition in RA-treated samples
Protocol: For semi-quantitative and quantitative PCR, RNA was harvested from cells using a RNeasy® Mini kit (Qiagen; Valencia, Calif.). cDNA was then generated using Omniscript® RT (Qiagen), 1 μg RNA and oligo-dT primers. For semi-quantitative analysis, PCR was conducted using Platinum® Taq (Invitrogen) with 1 μl cDNA for 30 or 35 cycles. For quantitative analysis, PCR was conducted using Quantitect® SYBR Green qPCR kit (Qiagen) with 1 μl cDNA on an iCycler (BioRad; Hercules, Calif.). Relative expression levels were calculated using the ΔCT method, normalizing to GAPDH transcription. Primers (Table 1) were designed to span intron or bound exon borders, and PCR products were verified by melt curve analysis and/or 2% agarose gel electrophoresis.
BMP-4 synergized with RA in direct differentiation of hESCs to K14^+ cells. hESCs were directly differentiated in N2 medium containing RA, BMP-4 or Noggin (a BMP inhibitor). After differentiation for six days, RNA was analyzed for expression of epithelial and neuroectodermal transcripts. ΔNp63 was elevated in all RA-treated cell samples, regardless of status of BMP signaling.

Molecule | toxicity to undifferentiated hESCs (undifferentiated hESCs) | cells expressing K14 (hESCs [1]; after five weeks of differentiation, subculture in keratinocyte medium) [%] | K14+ yield (hESCs [1]) | effect on RA downregulation of neuroepithelial gene expression (hESCs [2])
CC1=C(/C=C/C(C)=C/C=C/C(C)=C/C(=O)O)C(C)(C)CCC1 [RA, tretinoin (all-trans RA), reference compound] | appeared toxic | 87 | – | –
B1 | – | – | decreased | mitigated this effect
B2 | – | – | only slightly affected | –
